For assay [1], the system named is caspase-1 activity in splenic CD11b^+ monocytes. Nature of the assay: FAM FLICA flow cytometry of caspase-1 activity (inflammasome activation) in splenic monocytes after stroke. The assay is classed as in vivo, mice. The conditions noted are these: caspase-8 or caspase-9 inhibitor vs vehicle, 18 h after stroke, normalized to sham. The text has this:
(§1) Mice were anaesthetized with isoflurane delivered in a mixture of 30% O2 and 70% N2O. An incision was made between the ear and the eye in order to expose the temporal bone. Mice were placed in supine position, and a laser Doppler probe was affixed to the skull above the middle cerebral artery (MCA) territory. The common carotid artery and left external carotid artery were exposed via midline incision and further isolated and ligated. A 2-mm silicon-coated filament (Doccol) was inserted into the internal carotid artery, advanced gently to the MCA until resistance was felt, and occlusion was confirmed by a corresponding decrease in blood flow (i.e., a decrease in the laser Doppler flow signal by 80%. After 60 minutes of occlusion, the animals were re-anesthetized, and the filament was removed. After recovery, the mice were kept in their home cage with ad libitum access to water and food. Sham-operated mice received the same surgical procedure, but the filament was […] in lieu of being advanced to the MCA. Body temperature was maintained at 37° C. throughout surgery in all mice via feedback-controlled heating pad. The overall mortality rate of animals subjected to MCA occlusion was approximately 20%. All animals in the sham group survived the procedure. Exclusion criteria: 1. Insufficient MCA occlusion (a reduction in blood flow to […] of the baseline value). 2. Death during the surgery. 3. Lack of brain ischemia as quantified post-mortem by histological analysis.
Human recombinant DNase (hrDNase): 1000 U of human recombinant DNase (Roche, Switzerland) dissolved in incubation 1× buffer (40 mM Tris-HCl, 10 mM NaCl, 6 mM MgCl2, 1 mM CaCl2, pH 7.9, diluted in PBS, Roche) was injected i.v. in the tail vein 1 hour after surgery in a final volume of 100 μl. The control group was administered vehicle injections at the same volume, route, and timing as experimental animals.
Caspase-8 inhibitor (Z-IETD-FMK) & Caspase-9 inhibitor (Z-LEHD-FMK): The apoptosis inhibitors Z-IETD-FMK and Z-LEHD-FMK (R&D systems, US) in DMSO dissolved in PBS and injected i.p. 30 minutes after surgery. Z-LEHD-FMK was injected at a dose of […] body weight at a final volume of 200 μl. Z-IETD-FMK was injected at a dose of 0.8 mg kg^−1 body weight at a final volume of 100 μl. The control groups were administered vehicle injections at the same volume, route, and timing as experimental animals.
To detect the active forms of caspase-1 in blood, spleen, and bone marrow samples, cell suspensions were stained with the fluorescent inhibitor probe FAM-YVAD-FMK (FAM FLICA, BioRad, Germany) for 30 minutes at 37° C. according to the manufacturer's instructions. After washing, the cells were stained for CD45^+CD3^+ T cells and CD45^+Cd11b^+ monocytes. The flow cytometry data was acquired on a BD FACSVerse (for representative gating strategy, see FIG. 10B).

The subject of another assay is splenic CD3^+ T cells. Nature of the assay: Splenic T cell counts by FACS after experimental stroke. The assay is classed as in vivo, mice. The conditions noted are these: i.p. 30 minutes after stroke surgery; Z-IETD-FMK 0.8 mg kg^−1, Z-LEHD-FMK; normalized to sham.
Text: as §1
Anti-IL1β: Mice received two injections of antagonizing anti-IL-1β in sterile saline (clone: B122, InVivoMab, BioXcell, US), 1 hour prior to and 1 hour after surgery. Anti-IL-1β or the corresponding IgG control (Armenian hamster IgG, InVivoMab, BioXcell, US) was injected i.p. at a dose of 4 mg kg^−1 body weight in a final volume of 200 μl.
Anti-FasL: Mice received two injections of antagonizing anti-FasL in sterile saline (clone: MFL3, InVivoMab, BioXcell, US), 1 hour prior to and 1 hour after surgery. […]
Background: A flow cytometer gives signals particle by particle.

Another assay relates to splenic T cells. In words: rIL-1β i.p. injection in WT mice: T cell death in the spleen by FACS. The class given is in vivo. The conditions noted are these: rIL-1β 100 or 1000 ng single i.p. injection, 6 h later. Here is the method:
(§2) Murine recombinant IL-1β: Recombinant IL-1β (401-ML, R&D systems, US) was diluted in sterile PBS and administered intraperitoneally at a dose of 100 or 1000 ng per mouse in a total volume of 100 μl. The control group was administered vehicle injections at the same volume, route and timing as experimental animals.
(§3) Mice were deeply anaesthetized with ketamine (120 mg/kg) and xylazine (16 mg/kg) and blood was drawn via cardiac puncture in 50 mM EDTA (Sigma-Aldrich). Plasma was isolated by centrifugation at 3,000 g for 10 minutes and stored at −80° C. until further use. The blood pellet was resuspended in DMEM and erythrocytes were lysed using isotonic ammonium chloride buffer. Immediately following cardiac puncture, mice were transcardially perfused with normal saline for dissection of bone marrow and spleen. […]
(§4) The anti-mouse antibodies listed below (see Table 1) were used for surface marker staining of CD45^+ leukocytes, CD45^+CD11b^+ monocytes (+FasL^+ expression), CD3^+ T cells, CD3^+CD4^+ Thelper cells, CD3^+CD8^+ Tcytotox cells and CD19^+ B cells (for representative gating strategy, see FIG. 10A). […] Flow cytometric data was acquired using a BD FACSverse flow cytometer (BD Biosciences) and analyzed using FlowJo software (Treestar).

The next assay concerns monocytic FasL. Nature of the assay: rIL-1β i.p. injection in WT mice: monocytic FasL expression in the spleen by FACS. The assay is classed as in vivo. The conditions noted are these: rIL-1β 100 or 1000 ng single i.p. injection, 6 h later. Here is the method:
as §2, §3, §4

In the next assay the test system is FasL on BMDMs. Nature of the assay: BMDMs treated with IL-1a, IL-1b or IL-18: FasL+ expression. The class given is cell-based, mice. The conditions noted are these: BMDMs treated with 100 ng of IL-1a, IL-1b or IL-18 for 4 h.
In a further assay the test system is T cells. Nature of the assay: BMDMs stimulated with rIL-1β, then T cell co-culture: T cell death. The class given is cell-based, mice. The conditions noted are these: T cells added to rIL-1β-stimulated BMDMs in fresh medium, FACS 180 minutes later. The procedure: Round-bottom tissue culture-treated 96-well plates were coated with 100 μl of PBS containing a mixture of […] purified NA/LE hamster anti-mouse CD3e (clone: 145-2C11, BD Pharmingen) and […] anti-mouse CD28 (clone: 37.51, Invitrogen), and then incubated overnight at 37° C. with 5% CO2. Spleens (wild type, Casp1^−/−) isolated from mice were homogenized into single splenocyte suspensions by using a 40 μm cell strainer followed by erythrolysis as described above. T cells were purified from splenocytes using a negative selection kit (MagniSort, Thermo Fisher) according to the manufacturer's instructions. Purity was reliably ≥90% as assessed by flow cytometry.
Control-treated BMDMs received only FBS-containing culture media. […] Stimulation by secreted factors (left), and 2. Cell-cell contact (right).

Assay [2] relates to FasL^+CD11b^+ monocytes (BMDMs). The conditions noted are these: BMDMs stimulated with rIL-1β in increasing doses, FACS 180 minutes after adding T cells.

Where two headings read alike, the source gives them in different places. Residues, ends and D or L forms follow the SMILES beside them. *: point of attachment. Cbz = O=C(OCc1ccccc1)*; CH2F = FC*

For the molecule `CC[C@H](C)[C@H](NC(=O)OCc1ccccc1)C(=O)N[C@@H](CCC(=O)OC)C(=O)N[C@H](C(=O)N[C@@H](CC(=O)OC)C(=O)CF)[C@@H](C)O` [Z-IETD-FMK] (Cbz-IE(OMe)TD(OMe)-CH2F), the “caspase-1 activity in splenic CD11b+ monocytes” value in assay [1] is listed as “neither affected caspase-1 activation in monocytes”; in assay [1] (listed as C8i), “Neither caspase-8 nor caspase-9 inhibitor showed differences in caspase-1 activity compared to the vehicle-treated mice”. In the assay with splenic CD3^+ T cells, the T cell death entry was “T cell death was only reduced in mice treated with the caspase-8”.
Consider `COC(=O)CC[C@H](NC(=O)[C@H](CC(C)C)NC(=O)OCc1ccccc1)C(=O)N[C@@H](Cc1cnc[nH]1)C(=O)N[C@@H](CC(=O)OC)C(=O)CF` [Z-LEHD-FMK] (Cbz-LE(OMe)HD(OMe)-CH2F), for which the “caspase-1 activity in splenic CD11b+ monocytes” value in assay [1] is “neither affected caspase-1 activation in monocytes”; in assay [1] (listed as C9i), “Neither caspase-8 nor caspase-9 inhibitor showed differences in caspase-1 activity compared to the vehicle-treated mice”.

B1: rIL-1β: Murine recombinant IL-1β (401-ML, R&D systems) (protein, UniProt P10749 118-269, looked up)
Interleukin-1 beta: VPIRQLHYRLRDEQQKSLVLSDPYELKALHLNGQNINQQVIFSMSFVQGEPSNDKIPVALGLKGKNLYLSCVMKDGTPTLQLESVDPKQYPKKKMEKRFVFNKIEVKSKVEFESAEFPNWYISTSQAEHKPVFLGNNSGQDIIDFTMESVSS
For B1, the “T cell death in the spleen” value in the assay on splenic T cells (listed as rIL-1b) was “dose-dependent increase in T cell death in the spleen”; with splenic T cells (listed as recombinant IL-1β), “dose-dependently induced T cell death and FasL upregulation on myeloid cells”. In addition, the “monocytic FasL expression in the spleen” value is “dose-dependent increase in associated monocytic FasL expression in the spleen” in the assay with monocytic FasL; “dose-dependently induced T cell death and FasL upregulation on myeloid cells” in the assay with monocytic FasL (listed as recombinant IL-1β). Further, the “FasL+ expression normalized to untreated control” value in the assay with FasL on BMDMs is “FasL upregulation on myeloid cells was predominantly induced by IL-1β”. Further, the T cell death result with T cells is “increased T cell death”; in the assay with T cells (listed as recombinant IL-1β), “increased FasL expression and T cell death but to a lesser degree than induced by the serum of stroke mice”. Further, the “ratio of FasL+CD11b+ monocytes / FasL expression” value is “increased the ratio of FasL^+CD11b^+ monocytes” in assay [2]; “increased FasL expression and T cell death but to a lesser degree than induced by the serum of stroke mice” in assay [2] (listed as recombinant IL-1β).

These data come from patent US20230241185A1, “COMPOSITION COMPRISING A DNA-DEGRADING ENZYME FOR USE IN A METHOD FOR THE TREATMENT OF IMMUNOSUPPRESSION AFTER ACUTE TISSUE INJURY” (Klinikum der Universität München, priority 2020, published 2023).
